Laboratory results from patent US9115359B2, “Methods for producing secondary metabolites” (NewSouth Innovations Pty Limited, priority 2007, dated 2015).

Assays:
[1] = target: Bacillus brevis ATCC8185 NRPS peptidyl carrier protein involved in tyrocidine biosynthesis (TycPCP) (Bacillus brevis ATCC8185)
[2] = target: truncated SACP, SACP3 (Synechocystis sp. PCC6803) (UniProt P20804)
[3] = substrate: CC(C)(COP(=O)(O)OP(=O)(O)OC[C@H]1O[C@@H](n2cnc3c(N)ncnc32)[C@H](O)[C@@H]1OP(=O)(O)O)[C@@H](O)C(=O)NCCC(=O)NCCS; assay: Phosphopantetheinylation assay with HPLC analysis: kinetics of Sppt with respect to CoA, carrier protein SACP3 (truncated SACP); type: biochemical, Synechocystis sp. PCC6803; settings: other: Michaelis-Menten fit, 37° C.
From the text: Sppt and SACP were expressed and purified to determine the activity of Sppt via phosphopantetheinylation assays. Sppt was amplified by the primer pair SynPpF (5′-TGTTTAAACTCACCTG-3′) (SEQ ID NO: 9) and SynPpR (5′-CCCAAGGTTACGAAAC-3′) (SEQ ID NO: 10). The resulting PCR product was cloned into pGEM-T (Promega), digested with the restriction enzymes SacI and EcoRV and ligated into pET30 (Novagen, San Diego, Calif.). The Synechocystis sp. PCC6803 fatty acid synthesis (FAS) ACP, designated SACP (AcpP BA000022), was amplified by the primer pair ssl2084Efw (5′-[…]-3′) (SEQ ID NO: 11) and ssl12084 Hry (5′-[…]-3′) (SEQ ID NO: 12), digested with the restriction enzymes EcoRI and HindIII, and cloned into pET30. A truncated SACP, SACP3, was cloned and expressed for HPLC kinetic analysis using the primers 2084NdeF (5′-[…]-3′) (SEQ ID NO: 13) and 2083XhoR (5′-[…]-3′) (SEQ ID NO: 14).
The constructs were transformed into BL21(DE3) Rosetta (Novagen) for expression. Sppt was expressed at 37° C., with an induction concentration of 1 mM isopropyl-beta-D-thiogalactopyranoside (IPTG), for 3 hours. SACP and SACP3 were expressed at 37° C. with 1 mM IPTG for 20-40 min. Cultures were harvested at 5,000×g and cell pellets were stored at −80° C. Cell pellets were resuspended in Hepes buffer (Hepes 50 mM, NaCl 150 mM pH 7.4) and passaged three times through a cooled French pressure cell at […] (Paton Scientific, Victor Harbor, South Australia). […]
The protein concentrations were determined based on the calculated extinction coefficients: SACP 6,970 cm^−1M^−1, Sppt 53,110 cm^−1M^−1. […]
Sppt activity towards SACP was determined in a 10 min phosphopantetheinylation assay at 37° C. as previously described in Copp J. N., Roberts A. A., Marahiel M. A., Neilan B. A., 2007, Characterization of PPTNs, a cyanobacterial phosphopantetheinyl transferase from Nodularia spumigena NSOR10. […]
The CoA inhibition and pH activity range for Sppt was determined using in vitro phosphopantetheinylation assays with the truncated SACP3. […]

TycPCP = assay: Sppt in vitro phosphopantetheinylation of non-cognate carrier proteins, ESI-MS; type: biochemical, Bacillus brevis ATCC8185; settings: 30 min reaction; estimated from holo- and apo-CP abundance in mass spectra
Method: (§1) Sppt activity towards SACP was determined in a 10 min phosphopantetheinylation assay at 37° C. as previously described in Copp J. N., Roberts A. A., Marahiel M. A., Neilan B. A., 2007, Characterization of PPTNs, a cyanobacterial phosphopantetheinyl transferase from Nodularia spumigena NSOR10. J Bacteria 189(8):3133-9. Briefly, the 100-200 μl reactions comprised of 50 mM Tris-HCl pH 7.4, 12.5 mM MgCl2, 0.5 mM CoA, 2 μM DTT, 100 μM carrier protein and 300 nM Sppt. Reactions were incubated for 10 min at 37° C., terminated by the addition of 1 ml trichloroacetic acid and precipitated overnight at −20° C. before centrifugation for 15 min at 18,000×g. Samples were dissolved in water:acetonitrile:formic acid (50:49:1). Phosphopantetheinylation was observed by an increase in mass of 340 Da as visualised by electrospray ionisation mass spectrometry (ESI-MS). […]
(§2) The ability of Sppt to activate carrier proteins from a range of secondary metabolism pathways was tested, including those from unicellular and filamentous, heterocyst-forming cyanobacteria. […] Protein concentrations were determined based on the calculated extinction coefficients: NpArCP 8,250 cm^−1M^−1, NpACP 13,940 cm^−1M^−1, MPCP 6,970 cm^−1M^−1 and TycPCP 9,530 cm^−1M^−1. Phosphopantetheinylation assays were carried out in 30 min reactions and analysed by ESI-mass spectrometry described in Example 4 above.

MPCP = assay: as above; type: biochemical, M. aeruginosa PCC7806; settings: 30 min reaction
Method: as §1, §2

NpArCP = assay: as above; type: biochemical, N. punctiforme ATCC29133; settings: 30 min reaction
Method: as §1, §2

NpACP = assay: as above; type: biochemical, N. punctiforme ATCC29133; settings: 30 min reaction
Method: as §1, §2

**Q.** How did the phosphopantetheinylation of the carrier protein (30 min assay, ESI-MS; % holo-CP) [1] turn out when “Synechocystis sp. PCC6803 phosphopantetheinyl transferase (Sppt) (from UniProt Q55185) (enzyme)” was run?
**A.** 54%

**Q.** What about the kcat of phosphopantetheinylation of SACP3 (HPLC assay, CoA varied) (min^-1 (printed min^d)) [2] of the same molecule?
**A.** 28.4

B1: Synechocystis sp. PCC6803 phosphopantetheinyl transferase Sppt (slr0495, Swissprot accession number Q55185) (Synechocystis sp. PCC 6803 substr. Kazusa) (protein)
chain: MAISAEFALCLNSPVLPQPQIWLCPTDRPLIPGYQALLSSEEMARGERYQRPQDKQRFLTMRLALRILLARQLDCLPQQLQFTYGPQGKPELVDRERRSPWFNVAHSGNYGLIGLSTEGEIGVDLQIMLPKPHYLKLAKRFFAPQEVQQLESLEGEKRTKLFYQLWTAKEAFLKATGKGISGGLNQVIPDENLAKYQYLPDSGDTNHWRLSSQPLLADQGSNDNYWMAIAWCTNEVNQVESNYLPNIQPFQWPRNLHSLPSFRYLGKGEFQHTGGRY
notes: carrier-protein substrate truncated SACP3
**Q.** With B1 as the molecule, how does the Km [3] read?
**A.** 169.17 ± 37.48 µM

**Q.** And the kcat [3]?
**A.** 0.473 s⁻¹

**Q.** What about the kcat/Km [3] of the same molecule?
**A.** 2800 M⁻¹ s⁻¹

B2: Sppt: Synechocystis sp. PCC6803 phosphopantetheinyl transferase (slr0495, Swissprot Q55185) (protein)
chain: MLPQPQIWLCPTDRPLIPGYQALLSSEEMARGERYQRPQDKQRFLTMRLALRILLARQLDCLPQQLQFTYGPQGKPELVDRERRSPWFNVAHSGNYGLIGLSTEGEIGVDLQIMLPKPHYLKLAKRFFAPQEVQQLESLEGEKRTKLFYQLWTAKEAFLKATGKGISGGLNQVIPDENLAKYQYLPDSGDTNHWRLSSQPLLADQGSNDNYWMAIAWCTNEVNQVESNYLPNIQPFQWPRNLDSLP
**Q.** Which “TycPCP phosphopantetheinylated (% holo-CP)” value (TycPCP) does the source give for B2 here?
**A.** approximately 54%

**Q.** What about the “phosphopantetheinylation of MPCP” value (MPCP) of the same molecule?
**A.** small mass peak corresponding to the addition of a 340 Da phosphopantetheinyl moiety

**Q.** And the “phosphopantetheinylation of NpArCP” value (NpArCP)?
**A.** unable to phosphopantetheinylate

**Q.** What about the “phosphopantetheinylation of NpACP” value (NpACP) of the same molecule?
**A.** not reproducibly detected
